The target of experiment [1] is HLA-E-RL9SIV single chain trimer on transfected 293T cells (human, UniProt P61769 21-119; P13747 22-358). The experiment in a line: flow cytometry, SCT-transfected 293T cells, MFI bar chart [panel E].
Experiment [2] concerns the target T1, RL9 SIV (peptide pulsed K562-HLA-E cells) (human).
T1 construct: cell surface
The experiment in a line: flow cytometry on peptide-pulsed K562-HLA-E cells; AF647 anti-mouse Ig(H+L). A general note: In flow cytometry, cells or beads pass a laser one at a time.

Experiment [3] deals with T2, Mtb44 (peptide pulsed K562-HLA-E cells) (human).
T2 construct: cell surface
The description is as above.

Experiment [4] deals with T3, RL9HIV (peptide pulsed K562-HLA-E cells) (human).
T3 construct: cell surface
Described as above.

Experiment [5] has as its target T4, soluble HLA-E-VL9 complex (HLA-E*01:03, β2M, VL9 peptide) (human).
Experiment [6] concerns the target T4, soluble HLA-E-VL9 complex (HLA-E*01:03, …). This is another data set of the same source.
The target is the same in experiment [7]. This is another data set of the same source.
For experiment [8], the target named is HLA-E-RL9HIV with a mutation at P1 (arginine to valine) on transfected 293T cells (human, UniProt P61769 21-119; P13747 22-358). The experiment in a line: flow cytometry on transfected HEK 293T cells.
Experiment [9] concerns the target T4, soluble HLA-E-VL9 complex (HLA-E*01:03, …). The source holds these as a separate data set.

The text below walks through data of patent publication US20250019443A1 (DUKE UNIVERSITY, published 2025).

Where two headings read alike, the source gives them in different places.

B1: CA172 (antibody, V domains shown)
VH: QVQLVESGGGLVKPGGSLRLSCAASGFTFSDYYMSWIRQAPGKGLEWVSYISSSSSYTNYADSVKGRFTISRDNAKNSLYLQMNSLRAEDTAVYYCARALRYFDWYDYWGQGTLVTVSS
VL: EIVLTQSPDFQSVTPKGKVTITCRASQSIGSSLHWYQQKPDQSPKLLIKYASQSFSGVPSRFSGSGSGTEFTLTISSLQPEDFATYYCQQLNSYSPITFGQGTRLEIK
As to B1, the binding result in experiment [1] is “no binding (tested: 2 µg/ml)”.

B2: 3H4 IgM (murine HLA-E-VL9-specific IgM monoclonal antibody 3H4) (antibody, V domains shown)
VH: EVQLQESGPELVKPGASVKIPCKASGYTFTDYNMDWVKQSHGKSLEWIGDINPNNGGTIYNQKFKGKATLTVDKSSSTAYMELRSLTSEDTAVYYCARPDYYGSSYGWYFDVWGTGTTVTVSS
VL: DIVITQSPSSMYASLGERVTITCKASQDINSYLSWFQQKPGKSPKTLIYRANRLVDGVPSRFSGSGSGQDYSLTISSLEYEDMGIYYCLQYDEFPLTFGAGTKLELK
notes: also called mAb 3H4; IgM 3H4
In the case of B2, the MFI in experiment [2] was found to be 1580; in experiment [3] it was 1180; in experiment [4] it was 1520.

B3: 3H4 Gv3 (antibody, V domains shown)
VH: EVQLQESGPELVKPGASVKIPCKASGYTFTDYNMDWVKQSHGKSLEWIGDINPNNGGTIYNQKFKGKATLTVDKSSSTAYMELRSLTSEDTAVYYCARPDSAQYSYGWYFDVWGTGTTVTVSS
VL: DIVITQSPSSMYASLGERVTITCKASQDINSYLSWFQQKPGKSPKTLIYRANRLVDGVPSRFSGSGSGQDYSLTISSLEYEDMGIYYCLQYDEFPLTFGAGTKLELK
A word on the Kd: it is the free concentration of one partner at which half of the binding sites on the other are occupied at equilibrium, for simple one-to-one binding. The low end stands for tighter binding, the high end for weaker binding. With B3, binding in [5] was characterised by a dissociation constant (Kd) of 223 nM.

B4: 3H4 Gv7 (antibody, V domains shown)
VH: EVQLQESGPELVKPGASVKIPCKASGYTFTDYNMDWVKQSHGKSLEWIGDINPNNGGTIYNQKFKGKATLTVDKSSSTAYMELRSLTSEDTAVYYCARPDGARWSYGWYFDVWGTGTTVTVSS
VL: DIVITQSPSSMYASLGERVTITCKASQDINSYLSWFQQKPGKSPKTLIYRANRLVDGVPSRFSGSGSGQDYSLTISSLEYEDMGIYYCLQYDEFPLTFGAGTKLELK
For orientation: koff means a measure of how fast the partners let go of each other. High values mean fast dissociation, low ones slow dissociation. As usually defined, the kon is the second-order rate constant of association. Lower therefore signals slow association. As for B4, in experiment [6], binding was put at a Kd of 735 nM, the koff is 0.0345 s⁻¹ and the kon stood at 47000 M⁻¹ s⁻¹. In addition, in experiment [7], the affinity, expressed as Kd, was 994 nM; the koff was 0.0349 s⁻¹; the on-rate constant (kon) was 35200 M⁻¹ s⁻¹.

B5: 3H4G_v31 (antibody, V domains shown)
VH: EVQLQESGPELVKPGASVKIPCKASGYTFTDYNMDWVKQSHGKSLEWIGDINPNNGGTIYNQKFKGKATLTVDKSSSTAYMELRSLTSEDTAVYYCARPDSAQYRWNWYFDVWGTGTTVTVSS
VL: DIVITQSPSSMYASLGERVTITCKASQDINSYLSWFQQKPGKSPKTLIYRANRLVDGVPSRFSGSGSGQDYSLTISSLEYEDMGIYYCLQYDEFPLTFGAGTKLELK
notes: also called 3H4_Gv31_G1.4A
Take B5: the binding result in experiment [8] is given as “binds”. In experiment [9], the Kd worked out at 62.4 nM, the koff is 0.0112 s⁻¹ and the kon turned out to be 180000 M⁻¹ s⁻¹.
